Experimental data published in paper PMC3575409, “Identification of a Novel Protein-Protein Interaction Motif Mediating Interaction of GPCR-Associated Sorting Proteins with G Protein-Coupled Receptors” (PLoS ONE, 2013).

Experiments:
Format in all cases: binding
[1] = system: GST-fused TGFβ (type III transforming growth factor β receptor) C-tail; assay: GST-pull down, TGFβ C-tail; conditions: for interaction with TGFβ C-tail: non-GPCR control; for GASP input retained by control TGFβ C-tail: percent of [35S]-GASP input, controls
Text: (§1) cDNAs encoding the cytoplasmic C-tail of 14 GPCRs and 2 one-transmembrane receptors were cloned into the pGEX-2T prokaryotic expression vector downstream the GST sequence. The following pGEX constructs were engineered: pGEX-DOR encoding residues 314–372 of the δ-opioid receptor (referring to Swiss-Prot accession number U10504), pGEX-MOR encoding residues 334–400 of the µ-opioid receptor (L29301), pGEX-KOR encoding residues 326–380 of the κ–opioid receptor (U17298), pGEX-ORL1 encoding residues 315–370 of the opioid receptor-like 1 (X77130), pGEX-M1 encoding residues 414–460 of the muscarinic M1 acetylcholine receptor (X52068), pGEX-M2 encoding residues 436–466 of the muscarinic M2 acetylcholine receptor (M16404), pGEX- ADRB1 encoding residues 373–477 of the β1 adrenergic receptor (J03019), pGEX-ADRB2 encoding residues 322–413 of the β2 adrenergic receptor (P07550), pGEX-CALCR encoding residues 407–490 of the calcitonin receptor (L00587), pGEX-CNR2 encoding residues 295–360 of the cannabinoid type 2 receptor (P34972), pGEX-5HT7 encoding residues 380–445 of the 5-hydroxytryptamine 7 receptor (L21195), pGEX-H2 encoding residues 284–349 of the histamine 2 receptor (S57565), pGEX-TXA2 encoding residues 304–343 of the α isoform of the thromboxane A2 receptor (D38081), pGEX-FZ4 encoding residues 493–537 of the frizzled 4 receptor (AB032417), pGEX-TGFβ encoding residues 805–849 of the type III transforming growth factor b receptor (L07594), pGEX-IGF1 encoding residues 1268–1367 of the insulin growth factor I receptor (X04434). Free GST was produced by using the pGEX-4T3 expression vector without insert. The same plasmid was used to clone the cDNA encoding a central domain of GASP-1, corresponding to amino acids 380 to 1073, downstream the GST sequence. All these plasmids were transformed into the Escherichia coli BL21 strain and expression was induced using 1mM of isopropylthiogalactoside for 2 h at 37°C. Bacteria were then pelleted, resuspended in PBS supplemented with cOmplete protease inhibitors (Roche), lysed at 1.5 kbar using a basic Z cell disrupter (constant system) and finally the lysates were cleared by centrifugation (10,000g, 15 min, 4°C).
(§2) cDNAs encoding GASP-1 and GASP-2 were cloned into the pcDNA3 eukaryotic expression vectors. cDNAs encoding GASP-3, -6, -7, and -9 were subcloned into pcDNA3.1 vectors. All the clones were controlled by DNA sequencing. The in vitro production was performed by using the TNT Quick-coupled Transcription/Translation T7 kit (Promega) in presence of [^35S]-Methionine according to the instructions from the manufacturer.
(§3) GST-fusion proteins were immobilized on glutathione-coupled Sepharose beads (GE Healthcare) for 1 h at 4°C and incubated with [^35S]-labelled in vitro translated GASP proteins or their truncated or mutated forms in ice-cold binding buffer containing: 20 mM Tris-HCl pH 7.4, 150 mM NaCl, 1 mM EDTA, 1 mM DTT, 10% glycerol and 1% Triton X-100. The mixture was incubated for 1 h at 4°C with gentle rocking. The beads were washed five times with the same ice-cold buffer, resuspended in 30 µl SDS-PAGE sample buffer, incubated 10 min at 65°C, and pelleted for 60 s at 3000 g. The supernatants were then analyzed by SDS-PAGE, the gels were stained with Coomassie blue to visualize GST-fusion proteins, dried and analyzed using a Phosphor-imager (Personal Molecular Imager FX, Biorad) to visualize [^35S]-labelled GASPs. Quantification was performed with the Quantity One software (Biorad). GST-pull down quantification data were analyzed using GraphPad Prism 4.03 (GraphPad Software). Quantifications presented are means of at least three independent experiments.

[2] = system: GST-fused H2 (histamine H2 receptor) C-tail; assay: GST-pull down, H2 C-tail; conditions: percent of [35S]-GASP input; pH 7.4, 1 h at 4°C; three independent experiments
Method: (§4) cDNAs encoding the cytoplasmic C-tail of 14 GPCRs and 2 one-transmembrane receptors were cloned into the pGEX-2T prokaryotic expression vector downstream the GST sequence. […]
as §3, with “The mixture was incubated for 1 h at 4°C with gentle rocking. The beads were washed five times with the same ice-cold buffer, resuspended in 30 µl SDS-PAGE sample buffer, incubated 10 min at 65°C, and pelleted for 60 s at 3000 g.” left out

[3] = system: GST-fused IGF1 (insulin growth factor I receptor) C-tail; assay: GST-pull down, IGF1 C-tail; conditions: for interaction with IGF1 C-tail: non-GPCR control; for GASP input retained by control IGF1 C-tail: percent of [35S]-GASP input, controls
Text: as §1, §2, §3

GST-fused M1 C-tail = assay: GST-pull down, M1 C-tail; conditions: percent of [35S]-GASP input; pH 7.4, 1 h at 4°C; three independent experiments
Text: as §1, §2, §3

GST-fused DOR C-tail = assay: GST-pull down, DOR C-tail; conditions: percent of [35S]-GASP input; pH 7.4, 1 h at 4°C; three independent experiments
Text: as §1, §2, §3

GST-fused TXA2 C-tail = assay: GST-pull down, TXA2 C-tail; conditions: percent of [35S]-GASP input; pH 7.4, 1 h at 4°C; three independent experiments
Method: as §4
as §3, with “The mixture was incubated for 1 h at 4°C with gentle rocking. The beads were washed five times with the same ice-cold buffer, resuspended in 30 µl SDS-PAGE sample buffer, incubated 10 min at 65°C, and pelleted for 60 s at 3000 g.” left out

GST-fused CALCR C-tail = assay: GST-pull down, CALCR C-tail; conditions: percent of [35S]-GASP input; pH 7.4, 1 h at 4°C; three independent experiments
Method: as §4
as §3, with “The mixture was incubated for 1 h at 4°C with gentle rocking. The beads were washed five times with the same ice-cold buffer, resuspended in 30 µl SDS-PAGE sample buffer, incubated 10 min at 65°C, and pelleted for 60 s at 3000 g.” left out

GST-fused ADRB1 C-tail = assay: GST-pull down, ADRB1 C-tail; conditions: percent of [35S]-GASP input; pH 7.4, 1 h at 4°C; three independent experiments
Text: as §1, §2, §3

GST-fused GPCR C-tails = assay: GST-pull down, GPCR C-tails; conditions: twelve GPCR C-tails
Text: as §1, §2
as §3, with “experiments. […]” for “experiments.”

B1: GASP-6: member of the second GASP subfamily, without GASP motif (protein)
chain: MGYARKVGWVTAGLVIGAGACYCIYRLTRGRKQNKEKMAEGGSGDVDDAGDCSGARYNDWSDDDDDSNESKSIVWYPPWARIGTEAGTRARARARARATRARRAVQKRASPNSDDTVLSPQELQKVLCLVEMSEKPYILEAALIALGNNAAYAFNRDIIRDLGGLPIVAKILNTRDPIVKEKALIVLNNLSVNAENQRRLKVYMNQVCDDTITSRLNSSVQLAGLRLLTNMTVTNEYQHMLANSISDFFRLFSAGNEETKLQVLKLLLNLAENPAMTRELLRAQVPSSLGSLFNKKENKEVILKLLVIFENINDNFKWEENEPTQNQFGEGSLFFFLKEFQVCADKVLGIESHHDFLVKVKVGKFMAKLAEHMFPKSQE
modifications: [35S]-methionine labelled
interaction with TGFβ C-tail [1]: No interaction was detected
GASP input retained by control TGFβ C-tail [1]: less than 1%
GASP input retained by H2 C-tail [2]: around 2%
interaction with IGF1 C-tail [3]: No interaction was detected
GASP input retained by control IGF1 C-tail [3]: less than 1%
GASP input retained by M1 C-tail (GST-fused M1 C-tail): around 2%
GASP input retained by DOR C-tail (GST-fused DOR C-tail): around 2%
GASP input retained by TXA2 C-tail (GST-fused TXA2 C-tail): around 2%
GASP input retained by CALCR C-tail (GST-fused CALCR C-tail): around 2%
GASP input retained by ADRB1 C-tail (GST-fused ADRB1 C-tail): around 2%
interaction with GPCR C-tails (GST-fused GPCR C-tails): very weak interactions

B2: GASP-9: member of the second GASP subfamily, without GASP motif (protein)
chain: MSRVRDAGCVAAGIVIGAGAWYCVYKYTRGRDQTKKRMAKPKNRAVAGTGARARAGLRAGFTIDLGSGFSPPTPVRAEAEDRAQDEASALDTVGAEAVAPAASSAEAQSGAGSQAQEADGAGVGPKAESVVGAAMASAIAPPPGVTEALGAAEAPAMAGAPKVAEAPREAETSRAAVPPGTVVPTEAAAPTEVTEGPGVAAPTKVAEAPGVASPTEAAEAPVPATPTGAAAPTGAAESPGTSGSPRTAVVPGTSAAKKATPGAHTGAIPKATSATGAVPKGGGKGVTRSRNGGKGKGKKSKVEVDELGMGFRPGDGAAAAAAASANGGQAFLAEVPDSEEGESGWTDTESDSDSEPETQRRGRGRRPVAMQKRPFPYEIDEILGVRDLRKVLALLQKSDDPFIQQVALLTLSNNANYSCNQETIRKLGGLPIIANMINKTDPHIKEKALMAMNNLSENYENQGRLQVYMNKVMDDIMASNLNSAVQVVGLKFLTNMTITNDYQHLLVNSIANFFRLLSQGGGKIKVEILKILSNFAENPDMLKKLLSTQVPASFSSLYNSYVESEILINALTLFEIIYDNLRAEVFNYREFNKGSLFYLCTTSGVCVKKIRALANHHDLLVKVKVIKLVNKF
modifications: [35S]-methionine labelled
interaction with TGFβ C-tail [1]: No interaction was detected
GASP input retained by control TGFβ C-tail [1]: less than 1%
GASP input retained by H2 C-tail [2]: around 2%
interaction with IGF1 C-tail [3]: No interaction was detected
GASP input retained by control IGF1 C-tail [3]: less than 1%
GASP input retained by M1 C-tail (GST-fused M1 C-tail): around 2%
GASP input retained by DOR C-tail (GST-fused DOR C-tail): around 2%
GASP input retained by TXA2 C-tail (GST-fused TXA2 C-tail): around 2%
GASP input retained by CALCR C-tail (GST-fused CALCR C-tail): around 2%
GASP input retained by ADRB1 C-tail (GST-fused ADRB1 C-tail): around 2%
interaction with GPCR C-tails (GST-fused GPCR C-tails): very weak interactions
